The results in this text go back to US20230002486A1 (SPARX THERAPEUTICS, published 2023).

In experiment [1] the target is T1, PD-L1 (programmed death-ligand 1), recombinant protein (human, UniProt Q9NZQ7 19-238, limits assumed).
T1 construct: the other ELISAs print only 'PD-L1'; also called human PDL1; CD274
As to the kind of experiment: direct ELISA, coated PD-L1 (FIG. 28B). (In general: An ELISA detects its analyte on a solid surface through an enzyme-linked reagent.)

Experiment [2] addresses claudin 18.2 (CLDN 18.2), recombinant protein (human). As to the kind of experiment: direct ELISA, coated CLDN 18.2 (FIG. 28A).
Experiment [3] has the same target. As to the kind of experiment: direct ELISA on coated CLDN 18.2.
Experiment [4] concerns the target T1, PD-L1 (programmed death-ligand 1), …. Kind of experiment: ELISA, coated human PDL1 (FIG. 30B).
Experiment [5] shares this target. Kind of experiment: direct ELISA on coated human PD-L1.
Experiment [6] has as its target claudin 18.2 (CLDN 18.2), recombinant protein (human). As to the kind of experiment: ELISA, coated CLDN18.2 (FIG. 30A).
The target in the next experiment is mouse PDL1 (mouse, UniProt Q9EP73 19-238, limits assumed). As to the kind of experiment: ELISA, coated mouse PDL1 (FIG. 30B).
Sequence of mouse PDL1 (Q9EP73 19-238 limits assumed): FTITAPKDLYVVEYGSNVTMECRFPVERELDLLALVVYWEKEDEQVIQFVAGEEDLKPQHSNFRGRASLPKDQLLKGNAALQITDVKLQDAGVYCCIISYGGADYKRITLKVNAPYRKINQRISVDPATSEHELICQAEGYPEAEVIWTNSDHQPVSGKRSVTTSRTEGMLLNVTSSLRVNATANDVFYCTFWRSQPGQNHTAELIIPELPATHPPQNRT
The target of experiment [7] is claudin 18.2 (CLDN 18.2), recombinant protein (human). As to the kind of experiment: competitive phage ELISA, phage-displayed Fab, coated and soluble CLDN 18.2. More on the design: unit not given here. As for the experimental part:
(§1) After 15 min incubation and washing, anti-M13 antibody/HRP conjugate was added and incubated for 30 min, then developed with TMB for 5-10 min and quenched with 1 M phosphoric acid. Binding signal was analyzed by the plate reader.
(§2) To identify clones with improved solubility, CDR light chain residue 55 (LC55E or L2) was mutated back to Glu on clones 9O47, 5C9oap-oae, 9O24-oae, 9O36-oae, 9O45-oae, and 9O47-oae.

For experiment [8] the target is unchanged. As to the kind of experiment: competitive phage ELISA: phage-displayed Fab pre-incubated with a dilution series of soluble CLDN 18.2 (axis: GFP-CLDN 18.2, nM), then added to plate-coated CLDN 18.2. As for the experimental part: as §1
Experiment [9] shares this target. The experiment is described as above. As for the experimental part:
as §1, §2
This is another data set of the same source.

Read-outs that look alike come from different tables or passages of the source.

Sequence of claudin 18.2 (CLDN 18.2), recombinant protein (human) (chain, as listed by the source limits assumed): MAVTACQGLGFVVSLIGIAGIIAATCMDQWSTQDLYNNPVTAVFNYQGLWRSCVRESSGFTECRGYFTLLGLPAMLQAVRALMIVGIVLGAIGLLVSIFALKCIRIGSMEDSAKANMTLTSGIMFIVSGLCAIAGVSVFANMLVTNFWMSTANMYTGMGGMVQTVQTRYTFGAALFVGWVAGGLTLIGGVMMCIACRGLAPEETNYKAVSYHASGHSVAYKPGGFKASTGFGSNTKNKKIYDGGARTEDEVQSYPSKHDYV
T1 sequence (Q9NZQ7 19-238 limits assumed): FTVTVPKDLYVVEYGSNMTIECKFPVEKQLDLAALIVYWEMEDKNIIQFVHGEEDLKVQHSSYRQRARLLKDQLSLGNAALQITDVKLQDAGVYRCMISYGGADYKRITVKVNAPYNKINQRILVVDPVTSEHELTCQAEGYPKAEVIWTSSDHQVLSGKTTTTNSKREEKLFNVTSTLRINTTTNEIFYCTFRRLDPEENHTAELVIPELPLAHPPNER

B1: Db11-21, heterodimeric (knob/hole) anti-CLDN 18.2/anti-PD-L1 bispecific antibody (bispecific antibody)
chain 1: not shown
chain 2: EIVLTQSPGTLSLSPGERATLSCRASQRVSSSYLAWYQQKPGQAPRLLIYDASSRATGIPDRFSGSGSGTDFTLTISRLEPEDFAVYYCQQYGSLPWTFGQGTKVEIKRSGGGGEVQLVESGGGLVQPGGSLRLSCAVSGYTFSMNWVRQAPGKGLEWVAWINMYTGEPTYADDFKGRFTISRDDSKNTLYLQMNSLRAEDTAVYYCARLYNGNSLDYWGQGTLVTVSSGGGGSEPKSSDKTHTCPPCPAPELLGGPSVFLFPPKPKDTLMISRTPEVTCVVVDVSHEDPEVKFNWYVDGVEVHNAKTKPREEQYNSTYRVVSVLTVLHQDWLNGKEYKCKVSNKALPAPIEKTISKAKGQPREPQVCTLPPSREEMTKNQVSLSCAVKGFYPSDIAVEWESNGQPENNYKTTPPVLDSDGSFFLVSKLTVDKSRWQQGNVFSCSVMHEALHNRFTQKSLSLSPGK
notes: Db11: 5C9ob VL-L1-durvalumab VH-L2-knob Fc; Db21: durvalumab VL-L3-5C9ob VH-L4-hole Fc; also called Db11/Db21
Take B1: the equilibrium dissociation constant (Kd) in experiment [1] was 0.378 nM; in experiment [2], 0.104 nM.

B2: OB12A4, two-chain anti-CLDN 18.2/anti-PD-L1 (12A4) bispecific antibody (bispecific antibody)
chain 1: not shown
chain 2: EIVLTQSPATLSLSPGERATLSCRASQSVSSYLAWYQQKPGQAPRLLIYDASNRATGIPARFSGSGSGTDFTLTISSLEPEDFAVYYCQQRSNWPTFGQGTKVEIKSGGGGEVQLVESGGGLVQPGGSLRLSCAVSGYTFSMNWVRQAPGKGLEWVAWINMYTGEPTYADDFKGRFTISRDDSKNTLYLQMNSLRAEDTAVYYCARLYNGNSLDYWGQGTLVTVSSGGGGSEPKSSDKTHTCPPCPAPELLGGPSVFLFPPKPKDTLMISRTPEVTCVVVDVSHEDPEVKFNWYVDGVEVHNAKTKPREEQYNSTYRVVSVLTVLHQDWLNGKEYKCKVSNKALPAPIEKTISKAKGQPREPQVCTLPPSREEMTKNQVSLSCAVKGFYPSDIAVEWESNGQPENNYKTTPPVLDSDGSFFLVSKLTVDKSRWQQGNVFSCSVMHEALHNRFTQKSLSLSPGK
Turning to B2, the figures for the 50% effective concentration (EC50 (read off the curve)) in experiment [3] and in experiment [5] were around 0.2 nM and around 0.4 nM, respectively. In addition, the Kd in [4] is 0.412 nM; in [6], 0.212 nM; with mouse PDL1, around 11100 nM.

B3: 9O36-oae with LC55E, phage-displayed Fab (Fab, V domains shown)
VH: EVQLVESGGGLVQPGGSLRLSCAVSGYTFSMNWVRQAPGKGLEWVAWINMYTGEPTYADDFKGRFTISRDDSKNTLYLQMNSLRAEDTAVYYCARLYRGNSLDYWGQGTLVTVSS
VL: DIQMTQSPSSLSASVGDRVTITCKSSQSLLNWGNQKSYLTWYQQKPGKAPKLLIYWASTLESGVPSRFSGSGSGTDYTLTISSLQPEDFATYYCQNAYFFPFTFGQGTKVEIK
notes: built from 9O36-oae with light chain residue 55 (Kabat; the sixth residue of VL CDR2 WASTLMS) mutated back to Glu; also called 9O36 oaeL2
Consider B3, for which, in experiment [7], the binding affinity was determined as 0.059.

B4: 9O41, phage-displayed Fab (Fab, V domains shown)
VH: EVQLVESGGGLVQPGGSLRLSCAVSGYTFSMNWVRQAPGKGLEWVAWINMYTGERTYADDFKGRFTISRDDSKNTLYLQMNSLRAEDTAVYYCARLYNGNSLDYWGQGTLVTVSS
VL: DIQMTQSPSSLSASVGDRVTITCKSSQSLLNSGNIKSYLTWYQQKPGKAPKLLIYWASTLRSGVPSRFSGSGSGTDYTLTISSLQPEDFATYYCQNAYSFPFTFGQGTKVEIK
As for B4, in experiment [7], the binding affinity amounted to 0.167.

B5: 9O36, phage-displayed Fab (Fab, V domains shown)
VH: EVQLVESGGGLVQPGGSLRLSCAVSGYTFSMNWVRQAPGKGLEWVAWINMYTGEPTYADDFKGRFTISRDDSKNTLYLQMNSLRAEDTAVYYCARLYNGNSLDYWGQGTLVTVSS
VL: DIQMTQSPSSLSASVGDRVTITCKSSQSLLNWGNQKSYLTWYQQKPGKAPKLLIYWASTLMSGVPSRFSGSGSGTDYTLTISSLQPEDFATYYCQNAYSFPFTFGQGTKVEIK
On to B5, for which the binding affinity in experiment [7] turned out to be 0.108.

B6: 5C9ob, phage-displayed Fab (Fab, V domains shown)
VH: EVQLVESGGGLVQPGGSLRLSCAVSGYTFSMNWVRQAPGKGLEWVAWINMYTGEPTYADDFKGRFTISRDDSKNTLYLQMNSLRAEDTAVYYCARLYNGNSLDYWGQGTLVTVSS
VL: DIQMTQSPSSLSASVGDRVTITCKSSQSLLNSGNQKSYLTWYQQKPGKAPKLLIYWASTLESGVPSRFSGSGSGTDYTLTISSLQPEDFATYYCQNAYFFPFTFGQGTKVEIK
notes: also called 5C9o with 5C9ob mutations
For the molecule B6, the binding affinity in experiment [7] came out at 0.221.

B7: 9O45, phage-displayed Fab (Fab, V domains shown)
VH: EVQLVESGGGLVQPGGSLRLSCAVSGYTFSMNWVRQAPGKGLEWVAWINMYTGETTYADDFKGRFTISRDDSKNTLYLQMNSLRAEDTAVYYCARLYNGNSLDYWGQGTLVTVSS
VL: DIQMTQSPSSLSASVGDRVTITCKSSQSLLNWGNQKSYLTWYQQKPGKAPKLLIYWASTLYSGVPSRFSGSGSGTDYTLTISSLQPEDFATYYCQNAYSFPFTFGQGTKVEIK
On to B7, for which the “IC50 (read off the curve)” value in experiment [8] is around 0.1 nM. The binding affinity in experiment [7] was determined as 0.104.

B8: 9O24-oae with LC55E, phage-displayed Fab (Fab, V domains shown)
VH: EVQLVESGGGLVQPGGSLRLSCAVSGYTFSMNWVRQAPGKGLEWVAWINMYTGEKTYADDFKGRFTISRDDSKNTLYLQMNSLRAEDTAVYYCARLYRGNSLDYWGQGTLVTVSS
VL: DIQMTQSPSSLSASVGDRVTITCKSSQSLLNSGNWKSYLTWYQQKPGKAPKLLIYWASTLESGVPSRFSGSGSGTDYTLTISSLQPEDFATYYCQNAYFFPFTFGQGTKVEIK
notes: built from 9O24-oae with light chain residue 55 (Kabat; the sixth residue of VL CDR2 WASTLVS) mutated back to Glu; also called 9O24 oaeL2
B8: the binding affinity in experiment [7] was 0.0604.

B9: 9O47, phage-displayed Fab (Fab, V domains shown)
VH: EVQLVESGGGLVQPGGSLRLSCAVSGYTFSMNWVRQAPGKGLEWVAWINMYTGEPIYADDFKGRFTISRDDSKNTLYLQMNSLRAEDTAVYYCARLYNGNSLDYWGQGTLVTVSS
VL: DIQMTQSPSSLSASVGDRVTITCKSSQSLLNWGNQKSYLTWYQQKPGKAPKLLIYWASTLFSGVPSRFSGSGSGTDYTLTISSLQPEDFATYYCQNAYSFPFTFGQGTKVEIK
Consider B9, for which, in experiment [8], the “IC50 (read off the curve)” value is around 0.1 nM and the dissociation constant Kd amounted to 0.095 nM. In experiment [7], the binding affinity came to 0.095.

B10: 9O47-oaeE (9O47-oae with LC55E), phage-displayed Fab (Fab, V domains shown)
VH: EVQLVESGGGLVQPGGSLRLSCAVSGYTFSMNWVRQAPGKGLEWVAWINMYTGEPIYADDFKGRFTISRDDSKNTLYLQMNSLRAEDTAVYYCARLYRGNSLDYWGQGTLVTVSS
VL: DIQMTQSPSSLSASVGDRVTITCKSSQSLLNWGNQKSYLTWYQQKPGKAPKLLIYWASTLESGVPSRFSGSGSGTDYTLTISSLQPEDFATYYCQNAYFFPFTFGQGTKVEIK
notes: also called 9O47 oaeL2; 9O47 with 5C9oae and L2 mutations
In the case of B10, the “IC50 (read off the curve)” value in experiment [9] was around 0.06 nM. In addition, in [7], the binding affinity came out at 0.0533.

B11: 5C9oap-oaeE (5C9oap-oae with LC55E), phage-displayed Fab (Fab, V domains shown)
VH: EVQLVESGGGLVQPGGSLRLSCAVSGYTFSMNWVRQAPGKGLEWVAWINMYTGERTYADDFKGRFTISRDDSKNTLYLQMNSLRAEDTAVYYCARLYRGNSLDYWGQGTLVTVSS
VL: DIQMTQSPSSLSASVGDRVTITCKSSQSLLNWGNQKSYLTWYQQKPGKAPKLLIYWASTLESGVPSRFSGSGSGTDYTLTISSLQPEDFATYYCQNAYFFPFTFGQGTKVEIK
notes: also called 5C9oap oaeL2; 5C9oap with 5C9oae and L2 mutations
On to B11, for which the “IC50 (read off the curve)” value in experiment [9] was around 0.06 nM. In addition, the binding affinity in experiment [7] is 0.0593.

B12: 9O45-oae with LC55E, phage-displayed Fab (Fab, V domains shown)
VH: EVQLVESGGGLVQPGGSLRLSCAVSGYTFSMNWVRQAPGKGLEWVAWINMYTGETTYADDFKGRFTISRDDSKNTLYLQMNSLRAEDTAVYYCARLYRGNSLDYWGQGTLVTVSS
VL: DIQMTQSPSSLSASVGDRVTITCKSSQSLLNWGNQKSYLTWYQQKPGKAPKLLIYWASTLESGVPSRFSGSGSGTDYTLTISSLQPEDFATYYCQNAYFFPFTFGQGTKVEIK
notes: built from 9O45-oae with light chain residue 55 (Kabat; the sixth residue of VL CDR2 WASTLYS) mutated back to Glu; also called 9O45 oaeL2
In the case of B12, the binding affinity in [7] was 0.0562.

B13: 9O47E (9O47 with LC55E), phage-displayed Fab (Fab, V domains shown)
VH: EVQLVESGGGLVQPGGSLRLSCAVSGYTFSMNWVRQAPGKGLEWVAWINMYTGEPIYADDFKGRFTISRDDSKNTLYLQMNSLRAEDTAVYYCARLYNGNSLDYWGQGTLVTVSS
VL: DIQMTQSPSSLSASVGDRVTITCKSSQSLLNWGNQKSYLTWYQQKPGKAPKLLIYWASTLESGVPSRFSGSGSGTDYTLTISSLQPEDFATYYCQNAYSFPFTFGQGTKVEIK
notes: also called 9O47 LC55E (L2)
Take B13: in experiment [7], the binding affinity amounted to 0.141.

B14: 9O24, phage-displayed Fab (Fab, V domains shown)
VH: EVQLVESGGGLVQPGGSLRLSCAVSGYTFSMNWVRQAPGKGLEWVAWINMYTGEKTYADDFKGRFTISRDDSKNTLYLQMNSLRAEDTAVYYCARLYNGNSLDYWGQGTLVTVSS
VL: DIQMTQSPSSLSASVGDRVTITCKSSQSLLNSGNWKSYLTWYQQKPGKAPKLLIYWASTLVSGVPSRFSGSGSGTDYTLTISSLQPEDFATYYCQNAYSFPFTFGQGTKVEIK
B14: the “IC50 (read off the curve)” value in experiment [8] is around 0.2 nM. For the same molecule, the binding affinity in experiment [7] turned out to be 0.144.

The Kd is the free concentration of one partner at which half of the binding sites on the other are occupied at equilibrium, for simple one-to-one binding. A word on the EC50 (read off the curve): it is the concentration needed to bring the measured effect to its halfway point.
